Earlier results, collected in article PMC9477731.

Biological target: CD28 (Homo sapiens) (UniProt P10747)

- Kd: 4 µM
Substance: CD80 (from UniProt P33681)
